Measurements taken from article PMC4380446.

Assays:
[1] = test system: purified haemagglutinin H9 (H9-HA) (Influenza A virus H9N2 (avian; strain not given in material)); assay: capillary electrophoresis
[2] = test system: haemagglutinin on whole H9N2 virus (Influenza A virus H9N2 (avian; strain not given in material)); assay: capillary electrophoresis
[3] = test system: haemagglutinin on whole H9N2 virus (Influenza A virus H9N2 (avian; strain not given in material)); assay: competition ELAA

Sequence | Kd [1] | Kd [2] | inhibition of binding [3]
GCTGCAATACTCATGGACAGCGGGGGTCTCGCCCTCCCGGCGGCCTCGGCGAGCGTCGGCGTCTGGAGTACGACCCTGAA [A6] | 0.0206 µM | – | –
GCTGCAATACTCATGGACAGCCTCCTGGGGTCAGGCTCAGACATTGATAAAGCGACATCGGTCTGGAGTACGACCCTGAA [A9] | 0.0462 µM | 0.0425 µM | 76.3 % inhibition
